± gives the uncertainty stated by the source.
B1: SWI/SNF complex subunit SMARCC1, residues 620 to 663; numbered along this chain, Q92922 (parent)
chain: GREWTEQETLLLLEALEMYKDDWNKVSEHVGSRTQDECILHFLR

Variants of: B1
Assay: abundance fitness (aPCA) (normalised: wild type 0, dead -1); higher = more abundant; growth selection in yeast, the domain comes from the species named
Conditions: Homo sapiens

Variant | abundance fitness
GREWTEQETLLLLEALEMYKEDWNKVSEHVGSRTQDECILHFLR [D21E] | 0.225 ± 0.071
GREWTEQETLLLLEALEMYKGDWNKVSEHVGSRTQDECILHFLR [D21G] | -0.046 ± 0.088
GREWTEQETLLLLEALEMYKADWNKVSEHVGSRTQDECILHFLR [D21A] | -0.066 ± 0.068
GREWTEQETLLLLEALEMYKHDWNKVSEHVGSRTQDECILHFLR [D21H] | 0.102 ± 0.087
GREWTEQETLLLLEALESYKDDWNKVSEHVGSRTQDECILHFLR [M18S] | -0.168 ± 0.076
GREWTEQETLLLLEALEHYKDDWNKVSEHVGSRTQDECILHFLR [M18H] | -0.04 ± 0.084
GREWTEQETLLLLEALEDYKDDWNKVSEHVGSRTQDECILHFLR [M18D] | -0.097 ± 0.25
GREWTEQETLLLLEALEAYKDDWNKVSEHVGSRTQDECILHFLR [M18A] | 0.115 ± 0.069
GREWTEQETLLLLEALEPYKDDWNKVSEHVGSRTQDECILHFLR [M18P] | -0.583 ± 0.41
GREWTEQETLLLLEALELYKDDWNKVSEHVGSRTQDECILHFLR [M18L] | 0.063 ± 0.067
GREWTEQETLLLLEALEEYKDDWNKVSEHVGSRTQDECILHFLR [M18E] | -0.135 ± 0.11
GREWTEQETLLLLEALEVYKDDWNKVSEHVGSRTQDECILHFLR [M18V] | -0.002 ± 0.067
GREWTEQETLLLLEALETYKDDWNKVSEHVGSRTQDECILHFLR [M18T] | 0.1 ± 0.17
GREWTEQETLLLLEALENYKDDWNKVSEHVGSRTQDECILHFLR [M18N] | -0.018 ± 0.25
GREWTEQETLLLLEALEQYKDDWNKVSEHVGSRTQDECILHFLR [M18Q] | 0.056 ± 0.077
GREWTEQETLLLLEALEKYKDDWNKVSEHVGSRTQDECILHFLR [M18K] | -0.076 ± 0.089
GREWTEQETLLLLEALERYKDDWNKVSEHVGSRTQDECILHFLR [M18R] | 0.142 ± 0.069
GREWTEQETLLLLEALECYKDDWNKVSEHVGSRTQDECILHFLR [M18C] | -0.158 ± 0.14
GREWTEQETLLLLEALEGYKDDWNKVSEHVGSRTQDECILHFLR [M18G] | -0.24 ± 0.074
GREWTEQETLLLLEALEWYKDDWNKVSEHVGSRTQDECILHFLR [M18W] | -0.2 ± 0.11

Variant | abundance fitness
GREWTEQETLLLLEALEIYKDDWNKVSEHVGSRTQDECILHFLR [M18I] | -0.264 ± 0.23
GREWTEQETLLLLEALEYYKDDWNKVSEHVGSRTQDECILHFLR [M18Y] | -0.129 ± 0.13
GREWTEQETLLLLEALEFYKDDWNKVSEHVGSRTQDECILHFLR [M18F] | -0.1 ± 0.094
GREWTEQETLLLLEALCMYKDDWNKVSEHVGSRTQDECILHFLR [E17C] | -0.763 ± 0.19
GREWTEQETLLLLEALRMYKDDWNKVSEHVGSRTQDECILHFLR [E17R] | -0.007 ± 0.058
GREWTEQETLLLLEALWMYKDDWNKVSEHVGSRTQDECILHFLR [E17W] | -0.716 ± 0.14
GREWTEQETLLLLEALIMYKDDWNKVSEHVGSRTQDECILHFLR [E17I] | -0.553 ± 0.2
GREWTEQETLLLLEALKMYKDDWNKVSEHVGSRTQDECILHFLR [E17K] | 0.139 ± 0.14
GREWTEQETLLLLEALSMYKDDWNKVSEHVGSRTQDECILHFLR [E17S] | -0.308 ± 0.082
GREWTEQETLLLLEALTMYKDDWNKVSEHVGSRTQDECILHFLR [E17T] | -0.175 ± 0.14
GREWTEQETLLLLEALFMYKDDWNKVSEHVGSRTQDECILHFLR [E17F] | -0.548 ± 0.33
GREWTEQETLLLLEALQMYKDDWNKVSEHVGSRTQDECILHFLR [E17Q] | -0.033 ± 0.11
GREWTEQETLLLLEALAMYKDDWNKVSEHVGSRTQDECILHFLR [E17A] | -0.087 ± 0.072
GREWTEQETLLLLEALMMYKDDWNKVSEHVGSRTQDECILHFLR [E17M] | -0.722 ± 0.2
GREWTEQETLLLLEALGMYKDDWNKVSEHVGSRTQDECILHFLR [E17G] | -0.213 ± 0.064
GREWTEQETLLLLEALVMYKDDWNKVSEHVGSRTQDECILHFLR [E17V] | -0.503 ± 0.1
GREWTEQETLLLLEALHMYKDDWNKVSEHVGSRTQDECILHFLR [E17H] | -0.357 ± 0.18
GREWTEQETLLLLEALDMYKDDWNKVSEHVGSRTQDECILHFLR [E17D] | 0.054 ± 0.092
GREWTEQETLLLLEALEMPKDDWNKVSEHVGSRTQDECILHFLR [Y19P] | -0.952 ± 0.19
GREWTEQETLLLLEALEMTKDDWNKVSEHVGSRTQDECILHFLR [Y19T] | -0.298 ± 0.087

Variant | abundance fitness
GREWTEQETLLLLEALEMSKDDWNKVSEHVGSRTQDECILHFLR [Y19S] | -0.362 ± 0.097
GREWTEQETLLLLEALEMHKDDWNKVSEHVGSRTQDECILHFLR [Y19H] | 0.062 ± 0.14
GREWTEQETLLLLEALEMMKDDWNKVSEHVGSRTQDECILHFLR [Y19M] | -0.62 ± 0.16
GREWTEQETLLLLEALEMKKDDWNKVSEHVGSRTQDECILHFLR [Y19K] | -0.263 ± 0.14
GREWTEQETLLLLEALEMWKDDWNKVSEHVGSRTQDECILHFLR [Y19W] | -0.081 ± 0.075
GREWTEQETLLLLEALEMQKDDWNKVSEHVGSRTQDECILHFLR [Y19Q] | -0.423 ± 0.13
GREWTEQETLLLLEALEMEKDDWNKVSEHVGSRTQDECILHFLR [Y19E] | -0.216 ± 0.13
GREWTEQETLLLLEALEMDKDDWNKVSEHVGSRTQDECILHFLR [Y19D] | -0.218 ± 0.15
GREWTEQETLLLLEALEMIKDDWNKVSEHVGSRTQDECILHFLR [Y19I] | -0.693 ± 0.15
GREWTEQETLLLLEALEMCKDDWNKVSEHVGSRTQDECILHFLR [Y19C] | 0.09 ± 0.099
GREWTEQETLLLLEALEMLKDDWNKVSEHVGSRTQDECILHFLR [Y19L] | -0.776 ± 0.19
GREWTEQETLLLLEALEMGKDDWNKVSEHVGSRTQDECILHFLR [Y19G] | -0.108 ± 0.059
GREWTEQETLLLLEALEMVKDDWNKVSEHVGSRTQDECILHFLR [Y19V] | -0.69 ± 0.18
GREWTEQETLLLLEALEMRKDDWNKVSEHVGSRTQDECILHFLR [Y19R] | -0.55 ± 0.086
GREWTEQETLLLLEELEMYKDDWNKVSEHVGSRTQDECILHFLR [A15E] | -0.716 ± 0.16
GREWTEQETLLLLEYLEMYKDDWNKVSEHVGSRTQDECILHFLR [A15Y] | -0.746 ± 0.24
GREWTEQETLLLLEDLEMYKDDWNKVSEHVGSRTQDECILHFLR [A15D] | -0.562 ± 0.44
GREWTEQETLLLLEHLEMYKDDWNKVSEHVGSRTQDECILHFLR [A15H] | -0.707 ± 0.18
